Results on 2 substances are retold here after paper PMC2114792.

One may read the stoichiometry N as a count of units in the complex or per binding partner.

Assay [1] concerns the target mouse hexabrachion (mouse (endogenous in 3T3 cells)) (UniProt Q80YX1). In words: rotary shadowing electron microscopy.
The target in assay [2] is rat hexabrachion (rat (endogenous in normal rat kidney cells)). In words: rotary shadowing electron microscopy.

For the substance mouse hexabrachion, Q80YX1 23-2110, in assay [1], the stoichiometry N is 6.
Regarding rat hexabrachion, in assay [2], the stoichiometry N came to 6.
